The values below come from PMC10646045.

Common to all, as to assay: nanopore single-molecule
In data set [1] the test system is HCoV-OC43 nucleocapsid protein (HCoV-OC43). The settings on record: 20 nM protein, 200 pM probe; SPR: DPBS running buffer, temperature not stated; nanopore: 2 M LiCl, 5 mM MgCl2, 10 mM Tris-HCl, 1 mM EDTA, pH 8, 300 mV, about 2 h incubation.
The target of data set [2] is SARS-CoV-2 nucleocapsid protein (SARS-CoV-2) (UniProt P0DTC9).
Data set [3] has as its system HCoV-229E nucleocapsid protein (HCoV-229E). The settings on record: 20 nM protein, 200 pM probe; SPR: DPBS running buffer, temperature not stated; nanopore: 2 M LiCl, 5 mM MgCl2, 10 mM Tris-HCl, 1 mM EDTA, pH 8, 300 mV, about 2 h incubation.
The subject of data set [4] is HCoV-NL63 spike protein (HCoV-NL63). The note with it: 200 nM protein, 200 pM probe; SPR: DPBS running buffer, temperature not stated; nanopore: 2 M LiCl, 5 mM MgCl2, 10 mM Tris-HCl, 1 mM EDTA, pH 8, 300 mV, about 2 h incubation.
Data set [5] addresses SARS-CoV-2 spike protein S1 region (SARS-CoV-2) (UniProt P0DTC2).
The test system of data set [6] is spike protein from lysed SARS-CoV-2 pseudovirus (SARS-CoV-2).
Data set [7] has as its system HCoV-OC43 spike protein (HCoV-OC43). The settings on record: 200 nM protein, 200 pM probe; SPR: DPBS running buffer, temperature not stated; nanopore: 2 M LiCl, 5 mM MgCl2, 10 mM Tris-HCl, 1 mM EDTA, pH 8, 300 mV, about 2 h incubation.

For the substance “NBA centre-labelled 10 kbp molecular probe”, the binding signal (% bound events) in data set [1] amounted to 0.83; in data set [2] it was 5.71; in data set [3] it was 0.31.
Take SBA end-labelled 10 kbp molecular probe: the binding signal (% bound events) in data set [4] came to 0.02; in data set [5] it was 9.82; in data set [6] it was 0.6; in data set [7], 0.5.
